# Measurements published in US11802878B2, “Protein sequencing method and reagents” (The Governing Council of the University of Toronto, priority 2009, dated 2023).
# Entries after “also recorded” stand apart in the source; their conditions may differ. Residues, ends and D or L forms follow the SMILES beside them.
# B1: Variant 1: engineered ClpS variant, SEQ ID NO: 2, binds N-terminal tryptophan selectively (protein)
# chain: KPPSMYKVILVNDDYTPAEFCIDVLQKFFSYDVERATQLCLAAHYQGKAICGVFTAEVAETKVAMVNKYARENEHAALCTLEKA
# Assays:
# [1] = target: T1, ClpS variant W1 (Escherichia coli, UniProt P0A8Q6, L99A/M40A/M62C/P98A/V43C/V65A); assay: Competitive phage ELISA, non-biotinylated peptide competitors against immobilized Wpep; type: binding, E. coli; details: FIG. 13 legend; result in words
# T1 construct: ST2 secretion signal (N, cleaved yes); made in house; host or cells: M13 phage display, amplified in E. coli XL1Blue with helper phage M13K07
# Description: Error bars represent 95% confidence intervals (n=2).
# Each phage pool was then briefly incubated in wells of a microtitre plate with Wpep ([sequence](biotin)) immobilized on neutravidin. Non-binding phage were washed away, and retained phage were detected using an enzymatically-labeled antibody against the filamentous phage particle and an appropriate colorimetric substrate. The value for W1 binding to neutravidin alone was subtracted from the binding signal from every well to correct for non-specific binding. The ELISA values were then expressed as proportions, relative to the maximum ELISA signal in absence of competitor. Error bars represent 95% confidence intervals (n=2).
# [2] = system: immobilized biotinylated peptide, N-terminal amino acid S (X-SDGMFTAGSLIGK(biotin)); assay: Phage ELISA, binding to immobilized peptide, N-terminal S; details: N-terminal S; phage 1X; sub Fab
# Description: (§1) Given the discovery that the specificity pocket library was functionally robust, selections against synthetic peptide ligands were carried out using this library. The specificity pocket library was selected against 20 biotinylated peptides, each with a different N-terminal residue atop a common leader sequence (X-SDGMFTAGSLIGK(biotin)) (SEQ ID NO: 4). The peptides were immobilized individually to the bottom wells of a microtiter plate. […] Consequently, ClpS mutant variants that prefer other residues in addition to the ligand ‘bait’ would bind those competing peptides in solution and simply be washed away. Only selective variants that bound to the immobilized target(s) were amplified during each subsequent round of selection.
# (§2) To evaluate the specificity and selectivity of individual clones, both wild-type ClpS and the selected variants' binding to each of the biotinylated peptides independently were tested. The same approach was also used to monitor the progress of the selections and to prioritize particular pools of phage for further investigation.
# (§3) Promising single clones were picked from the selection pools and their specificity was evaluated using the same panel of biotinylated peptides and various amounts of phage supernatant. […] Accordingly, Variant 1 represents a selective N-terminal amino acid capture probe for tryptophan useful for the sequencing methods described herein. Variant 1 also represents a useful scaffold for performing further generation and selection of variants with desirable properties for use as additional N-terminal amino acid capture probes.
# (§4) The selection and ELISA protocols are very similar. Briefly, each well of a 96-well Maxisorp plate was coated overnight at 4° C. with 100 μl of 10 μg/ml neutravidin in PBS, or 1:500 dilution of anti-FLAG antibody. […]
# (§5) For the ELISA readouts, 100 μl of pH adjusted phage supernatant or polyethylene glycol (PEG) precipitated concentrated phage was added to appropriate wells and allowed to bind for 1 hour at 4° C. […] The reaction was stopped by addition of 90 μl of 1M H3PO4 and the absorbance at A450 nm was read.
# [3] = system: immobilized biotinylated peptide, N-terminal amino acid N (X-SDGMFTAGSLIGK(biotin)); assay: Phage ELISA, binding to immobilized peptide, N-terminal N; details: N-terminal N; phage 1X; sub Fab
# Description: as §1, §2, §3, §4, §5
# [4] = system: immobilized biotinylated peptide, N-terminal amino acid D (X-SDGMFTAGSLIGK(biotin)); assay: Phage ELISA, binding to immobilized peptide, N-terminal D; details: N-terminal D; phage 1X; sub Fab
# Description: as §1, §2, §3, §4, §5
# [5] = system: immobilized biotinylated peptide, N-terminal amino acid G (X-SDGMFTAGSLIGK(biotin)); assay: Phage ELISA, binding to immobilized peptide, N-terminal G; details: N-terminal G; phage 1X; sub Fab
# Description: as §1, §2, §3, §4, §5
# [6] = system: immobilized biotinylated peptide, N-terminal amino acid T (X-SDGMFTAGSLIGK(biotin)); assay: Phage ELISA, binding to immobilized peptide, N-terminal T; details: N-terminal T; phage 1X; sub Fab
# Description: as §1, §2, §3, §4, §5
# [7] = system: immobilized biotinylated peptide, N-terminal amino acid I (X-SDGMFTAGSLIGK(biotin)); assay: Phage ELISA, binding to immobilized peptide, N-terminal I; details: N-terminal I; phage 1X; sub Fab
# Description: as §1, §2, §3, §4, §5
# [8] = system: immobilized biotinylated peptide, N-terminal amino acid R (X-SDGMFTAGSLIGK(biotin)); assay: Phage ELISA, binding to immobilized peptide, N-terminal R; details: N-terminal R; phage 1X; sub Fab
# Description: as §1, §2, §3, §4, §5
# [9] = system: immobilized biotinylated peptide, N-terminal amino acid L (X-SDGMFTAGSLIGK(biotin)); assay: Phage ELISA, binding to immobilized peptide, N-terminal L; details: N-terminal L; phage 1X; sub Fab
# Description: as §1, §2, §3, §4, §5
# [10] = system: immobilized biotinylated peptide, N-terminal amino acid V (X-SDGMFTAGSLIGK(biotin)); assay: Phage ELISA, binding to immobilized peptide, N-terminal V; details: N-terminal V; phage 1X; sub Fab
# Description: as §1, §2, §3, §4, §5
# [11] = system: immobilized biotinylated peptide, N-terminal amino acid M (X-SDGMFTAGSLIGK(biotin)); assay: Phage ELISA, binding to immobilized peptide, N-terminal M; details: N-terminal M; phage 1X; sub Fab
# Description: as §1, §2, §3, §4, §5
# [12] = system: immobilized biotinylated peptide, N-terminal amino acid E (X-SDGMFTAGSLIGK(biotin)); assay: Phage ELISA, binding to immobilized peptide, N-terminal E; details: N-terminal E; phage 1X; sub Fab
# Description: as §1, §2, §3, §4, §5
# [13] = system: immobilized biotinylated peptide, N-terminal amino acid Y (X-SDGMFTAGSLIGK(biotin)); assay: Phage ELISA, binding to immobilized peptide, N-terminal Y; details: N-terminal Y; phage 1X; sub Fab
# Description: as §1, §2, §3, §4, §5
# [14] = system: immobilized biotinylated peptide, N-terminal amino acid H (X-SDGMFTAGSLIGK(biotin)); assay: Phage ELISA, binding to immobilized peptide, N-terminal H; details: N-terminal H; phage 1X; sub Fab
# Description: as §1, §2, §3, §4, §5
# [15] = system: immobilized biotinylated peptide, N-terminal amino acid Q (X-SDGMFTAGSLIGK(biotin)); assay: Phage ELISA, binding to immobilized peptide, N-terminal Q; details: N-terminal Q; phage 1X; sub Fab
# Description: as §1, §2, §3, §4, §5
# [16] = system: immobilized biotinylated peptide, N-terminal amino acid K (X-SDGMFTAGSLIGK(biotin)); assay: Phage ELISA, binding to immobilized peptide, N-terminal K; details: N-terminal K; phage 1X; sub Fab
# Description: as §1, §2, §3, §4, §5
# [17] = system: immobilized biotinylated peptide, N-terminal amino acid C (X-SDGMFTAGSLIGK(biotin)); assay: Phage ELISA, binding to immobilized peptide, N-terminal C; details: N-terminal C; phage 1X; sub Fab
# Description: as §1, §2, §3, §4, §5
# [18] = system: panel of 20 biotinylated peptides, each with a different N-terminal residue (X-SDGMFTAGSLIGK(biotin)); assay: Phage ELISA specificity profile over the panel of biotinylated peptides; type: binding; details: phage displayed; result in words; listed as ClpS Variant 1
# Description: as §1
# To evaluate the specificity and selectivity of individual clones, both wild-type ClpS and the selected variants' binding to each of the biotinylated peptides independently were tested. […]
# Promising single clones were picked from the selection pools and their specificity was evaluated using the same panel of biotinylated peptides and various amounts of phage supernatant. […]
# as §5
# [19] = system: immobilized biotinylated peptide, N-terminal amino acid A (X-SDGMFTAGSLIGK(biotin)); assay: Phage ELISA, binding to immobilized peptide, N-terminal A; details: N-terminal A; phage 1X; sub Fab
# Description: as §1, §2, §3, §4, §5
# [20] = system: immobilized biotinylated peptide, N-terminal amino acid P (X-SDGMFTAGSLIGK(biotin)); assay: Phage ELISA, binding to immobilized peptide, N-terminal P; details: N-terminal P; phage 1X; sub Fab
# Description: as §1, §2, §3, §4, §5
# [21] = system: immobilized biotinylated peptide, N-terminal amino acid F (X-SDGMFTAGSLIGK(biotin)); assay: Phage ELISA, binding to immobilized peptide, N-terminal F; details: N-terminal F; phage 1X; sub Fab
# Description: as §1, §2, §3, §4, §5
# [22] = system: immobilized biotinylated peptide, N-terminal amino acid W (X-SDGMFTAGSLIGK(biotin)); assay: Phage ELISA, binding to immobilized peptide, N-terminal W; details: N-terminal W; phage 1X; sub Fab
# Description: as §1, §2, §3, §4, §5
molecule,measurement,setting,value
CC[C@H](C)[C@H](NC(=O)[C@H](CC(C)C)NC(=O)[C@H](CO)NC(=O)CNC(=O)[C@H](C)NC(=O)[C@@H](NC(=O)[C@H](Cc1ccccc1)NC(=O)[C@H](CCSC)NC(=O)CNC(=O)[C@H](CC(=O)O)NC(=O)[C@H](CO)NC(=O)[C@@H](N)Cc1c[nH]c2ccccc12)[C@@H](C)O)C(=O)O [Wpep] (H-WSDGMFTAGSLI-OH; N-terminus and C-terminus assumed),effective competitor for binding ClpS Variant 1,[1],effective competitor
B1,phage ELISA binding signal,[2],−0.001
same,phage ELISA binding signal,[3],0.052
same,phage ELISA binding signal,[4],−0.017
same,phage ELISA binding signal,[5],0.028
same,phage ELISA binding signal,[6],−0.005
same,phage ELISA binding signal,[7],−0.023
same,phage ELISA binding signal,[8],0.04
same,phage ELISA binding signal,[9],0.069
same,phage ELISA binding signal,[10],0.032
same,phage ELISA binding signal,[11],−0.003
same,phage ELISA binding signal,[12],0.032
same,phage ELISA binding signal,[13],0.045
same,phage ELISA binding signal,[14],−0.001
same,phage ELISA binding signal,[15],0.065
same,phage ELISA binding signal,[16],0.129
same,phage ELISA binding signal,[17],0.066
same,binding specificity / preference for N-terminal amino acids,[18],selectively binds polypeptides with the N-terminal amino acid tryptophan; also recorded: bound specifically to tryptophan alone; also recorded: selectively binds tryptophan N-terminal amino acids
same,phage ELISA binding signal,[19],0.018
same,phage ELISA binding signal,[20],0.062
same,phage ELISA binding signal,[21],0.083
same,phage ELISA binding signal,[22],2.636
